Values joined by “and” are separate entries in the source; they are usually repeats but may differ in a detail not shown here. Equal entries are not always repeated.
T1: Strep-tagged Smc5 (UniProt Q08204 1-1093)
T1 sequence (looked up): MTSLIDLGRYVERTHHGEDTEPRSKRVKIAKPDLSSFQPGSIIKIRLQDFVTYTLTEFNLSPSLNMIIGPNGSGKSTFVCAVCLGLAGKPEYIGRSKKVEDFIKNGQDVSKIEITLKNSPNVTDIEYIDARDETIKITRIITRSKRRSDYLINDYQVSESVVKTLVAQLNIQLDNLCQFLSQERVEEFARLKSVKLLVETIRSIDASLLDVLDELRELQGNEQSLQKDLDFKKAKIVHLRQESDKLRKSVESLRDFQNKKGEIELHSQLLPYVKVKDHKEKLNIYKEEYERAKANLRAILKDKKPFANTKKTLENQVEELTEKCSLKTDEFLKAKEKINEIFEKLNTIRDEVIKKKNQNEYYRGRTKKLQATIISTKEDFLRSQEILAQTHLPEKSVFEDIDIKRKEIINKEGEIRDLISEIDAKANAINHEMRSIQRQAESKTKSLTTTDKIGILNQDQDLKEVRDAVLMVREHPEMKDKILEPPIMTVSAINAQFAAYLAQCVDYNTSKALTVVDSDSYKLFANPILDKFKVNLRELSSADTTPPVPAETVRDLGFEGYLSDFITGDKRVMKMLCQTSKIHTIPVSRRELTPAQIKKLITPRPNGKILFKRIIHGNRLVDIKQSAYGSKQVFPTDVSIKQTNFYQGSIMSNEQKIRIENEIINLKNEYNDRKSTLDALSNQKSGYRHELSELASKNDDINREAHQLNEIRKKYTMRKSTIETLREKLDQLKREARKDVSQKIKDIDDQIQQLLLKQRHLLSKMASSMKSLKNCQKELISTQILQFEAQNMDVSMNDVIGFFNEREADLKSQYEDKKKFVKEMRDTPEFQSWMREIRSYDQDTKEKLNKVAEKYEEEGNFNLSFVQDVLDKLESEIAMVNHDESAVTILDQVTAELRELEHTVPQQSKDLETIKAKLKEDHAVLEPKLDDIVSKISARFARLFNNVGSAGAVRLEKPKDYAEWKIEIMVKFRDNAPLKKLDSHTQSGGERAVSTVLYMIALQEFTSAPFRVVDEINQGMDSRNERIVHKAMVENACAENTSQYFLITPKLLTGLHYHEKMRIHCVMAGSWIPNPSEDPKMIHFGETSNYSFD

T2: MBP-tagged Smc5 (WT) (UniProt Q08204 1-1093)
T2 sequence (looked up): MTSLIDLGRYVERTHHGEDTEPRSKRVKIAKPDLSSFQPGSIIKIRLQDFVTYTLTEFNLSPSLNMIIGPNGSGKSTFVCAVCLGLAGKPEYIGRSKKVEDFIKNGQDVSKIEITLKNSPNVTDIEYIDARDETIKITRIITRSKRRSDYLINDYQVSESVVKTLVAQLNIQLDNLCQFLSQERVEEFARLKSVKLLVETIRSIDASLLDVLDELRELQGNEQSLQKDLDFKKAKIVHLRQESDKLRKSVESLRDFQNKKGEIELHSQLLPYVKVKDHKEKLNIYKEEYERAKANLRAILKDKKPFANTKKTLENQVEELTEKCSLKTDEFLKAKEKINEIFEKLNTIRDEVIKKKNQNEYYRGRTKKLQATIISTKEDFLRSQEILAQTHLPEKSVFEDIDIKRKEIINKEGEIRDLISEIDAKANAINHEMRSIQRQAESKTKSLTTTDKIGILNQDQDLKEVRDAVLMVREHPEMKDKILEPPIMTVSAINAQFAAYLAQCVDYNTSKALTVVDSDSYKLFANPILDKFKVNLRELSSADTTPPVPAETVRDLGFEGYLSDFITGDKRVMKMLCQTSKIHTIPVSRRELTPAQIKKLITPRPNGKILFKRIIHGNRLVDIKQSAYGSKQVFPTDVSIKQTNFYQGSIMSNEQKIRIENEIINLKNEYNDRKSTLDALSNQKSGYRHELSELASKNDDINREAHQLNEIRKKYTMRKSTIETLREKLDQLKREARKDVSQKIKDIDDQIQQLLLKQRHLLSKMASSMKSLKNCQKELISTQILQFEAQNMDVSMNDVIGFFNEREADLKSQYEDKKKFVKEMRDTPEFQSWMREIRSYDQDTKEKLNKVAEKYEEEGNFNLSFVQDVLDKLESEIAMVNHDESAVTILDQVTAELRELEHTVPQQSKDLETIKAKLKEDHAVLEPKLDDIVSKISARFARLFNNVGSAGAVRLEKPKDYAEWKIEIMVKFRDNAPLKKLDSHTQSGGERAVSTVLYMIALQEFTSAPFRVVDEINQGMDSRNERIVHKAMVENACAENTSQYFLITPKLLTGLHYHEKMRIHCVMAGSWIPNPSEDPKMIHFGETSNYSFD

T3: His6-Flag-tagged Mph1 (budding yeast), P40562
T3 chain: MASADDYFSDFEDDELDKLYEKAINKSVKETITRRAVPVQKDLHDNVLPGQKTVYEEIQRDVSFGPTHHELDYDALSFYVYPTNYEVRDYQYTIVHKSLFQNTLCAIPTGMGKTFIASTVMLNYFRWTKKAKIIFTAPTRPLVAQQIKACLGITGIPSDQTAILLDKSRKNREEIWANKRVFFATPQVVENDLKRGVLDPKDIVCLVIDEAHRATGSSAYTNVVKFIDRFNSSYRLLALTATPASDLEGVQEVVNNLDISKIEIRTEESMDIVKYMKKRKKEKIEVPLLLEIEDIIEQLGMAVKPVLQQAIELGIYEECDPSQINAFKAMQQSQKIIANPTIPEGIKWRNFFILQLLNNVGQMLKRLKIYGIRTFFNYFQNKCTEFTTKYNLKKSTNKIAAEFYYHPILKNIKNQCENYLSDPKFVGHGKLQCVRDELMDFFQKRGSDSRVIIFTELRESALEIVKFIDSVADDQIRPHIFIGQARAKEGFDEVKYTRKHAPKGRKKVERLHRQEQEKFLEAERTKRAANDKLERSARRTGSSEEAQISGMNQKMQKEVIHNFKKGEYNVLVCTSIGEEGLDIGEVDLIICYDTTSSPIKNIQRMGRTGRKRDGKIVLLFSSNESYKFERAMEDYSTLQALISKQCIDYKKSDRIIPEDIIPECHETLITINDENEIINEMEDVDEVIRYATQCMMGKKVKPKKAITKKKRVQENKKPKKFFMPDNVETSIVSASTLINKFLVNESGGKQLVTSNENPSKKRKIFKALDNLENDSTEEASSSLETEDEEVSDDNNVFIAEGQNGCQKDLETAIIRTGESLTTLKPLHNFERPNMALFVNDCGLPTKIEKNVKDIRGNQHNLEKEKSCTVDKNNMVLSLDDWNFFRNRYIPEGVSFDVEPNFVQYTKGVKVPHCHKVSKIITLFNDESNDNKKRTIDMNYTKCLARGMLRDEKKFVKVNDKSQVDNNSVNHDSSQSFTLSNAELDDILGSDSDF

B1: His6-Flag-tagged Mph1 (enzyme, budding yeast, UniProt P40562 1-993, looked up)
chain: MASADDYFSDFEDDELDKLYEKAINKSVKETITRRAVPVQKDLHDNVLPGQKTVYEEIQRDVSFGPTHHELDYDALSFYVYPTNYEVRDYQYTIVHKSLFQNTLCAIPTGMGKTFIASTVMLNYFRWTKKAKIIFTAPTRPLVAQQIKACLGITGIPSDQTAILLDKSRKNREEIWANKRVFFATPQVVENDLKRGVLDPKDIVCLVIDEAHRATGSSAYTNVVKFIDRFNSSYRLLALTATPASDLEGVQEVVNNLDISKIEIRTEESMDIVKYMKKRKKEKIEVPLLLEIEDIIEQLGMAVKPVLQQAIELGIYEECDPSQINAFKAMQQSQKIIANPTIPEGIKWRNFFILQLLNNVGQMLKRLKIYGIRTFFNYFQNKCTEFTTKYNLKKSTNKIAAEFYYHPILKNIKNQCENYLSDPKFVGHGKLQCVRDELMDFFQKRGSDSRVIIFTELRESALEIVKFIDSVADDQIRPHIFIGQARAKEGFDEVKYTRKHAPKGRKKVERLHRQEQEKFLEAERTKRAANDKLERSARRTGSSEEAQISGMNQKMQKEVIHNFKKGEYNVLVCTSIGEEGLDIGEVDLIICYDTTSSPIKNIQRMGRTGRKRDGKIVLLFSSNESYKFERAMEDYSTLQALISKQCIDYKKSDRIIPEDIIPECHETLITINDENEIINEMEDVDEVIRYATQCMMGKKVKPKKAITKKKRVQENKKPKKFFMPDNVETSIVSASTLINKFLVNESGGKQLVTSNENPSKKRKIFKALDNLENDSTEEASSSLETEDEEVSDDNNVFIAEGQNGCQKDLETAIIRTGESLTTLKPLHNFERPNMALFVNDCGLPTKIEKNVKDIRGNQHNLEKEKSCTVDKNNMVLSLDDWNFFRNRYIPEGVSFDVEPNFVQYTKGVKVPHCHKVSKIITLFNDESNDNKKRTIDMNYTKCLARGMLRDEKKFVKVNDKSQVDNNSVNHDSSQSFTLSNAELDDILGSDSDF

Tests used:
His6-Flag-tagged Mph1 = biological target: B1; assay: pull-down
[1] = biological target: Myc-Smc5-Strep-Smc6 complex (UniProt Q08204 1-1093; Q12749 1-1114); assay: pull-down
Strep-tagged Smc5 = biological target: T1, Strep-tagged Smc5; assay: pull-down
MBP-tagged Smc5 (WT) = biological target: T2, MBP-tagged Smc5 (WT); assay: pull-down
[2] = biological target: T3, His6-Flag-tagged Mph1 (budding yeast), …; assay: atomic force microscopy, volume analysis; settings: remark: other sources report otherwise
[3] = biological target: T3, His6-Flag-tagged Mph1 (budding yeast), …; assay: atomic force microscopy, volume analysis; settings: remark: other sources report otherwise

Sequence of Myc-Smc5-Strep-Smc6 complex (Q12749 whole entry, one chain of several): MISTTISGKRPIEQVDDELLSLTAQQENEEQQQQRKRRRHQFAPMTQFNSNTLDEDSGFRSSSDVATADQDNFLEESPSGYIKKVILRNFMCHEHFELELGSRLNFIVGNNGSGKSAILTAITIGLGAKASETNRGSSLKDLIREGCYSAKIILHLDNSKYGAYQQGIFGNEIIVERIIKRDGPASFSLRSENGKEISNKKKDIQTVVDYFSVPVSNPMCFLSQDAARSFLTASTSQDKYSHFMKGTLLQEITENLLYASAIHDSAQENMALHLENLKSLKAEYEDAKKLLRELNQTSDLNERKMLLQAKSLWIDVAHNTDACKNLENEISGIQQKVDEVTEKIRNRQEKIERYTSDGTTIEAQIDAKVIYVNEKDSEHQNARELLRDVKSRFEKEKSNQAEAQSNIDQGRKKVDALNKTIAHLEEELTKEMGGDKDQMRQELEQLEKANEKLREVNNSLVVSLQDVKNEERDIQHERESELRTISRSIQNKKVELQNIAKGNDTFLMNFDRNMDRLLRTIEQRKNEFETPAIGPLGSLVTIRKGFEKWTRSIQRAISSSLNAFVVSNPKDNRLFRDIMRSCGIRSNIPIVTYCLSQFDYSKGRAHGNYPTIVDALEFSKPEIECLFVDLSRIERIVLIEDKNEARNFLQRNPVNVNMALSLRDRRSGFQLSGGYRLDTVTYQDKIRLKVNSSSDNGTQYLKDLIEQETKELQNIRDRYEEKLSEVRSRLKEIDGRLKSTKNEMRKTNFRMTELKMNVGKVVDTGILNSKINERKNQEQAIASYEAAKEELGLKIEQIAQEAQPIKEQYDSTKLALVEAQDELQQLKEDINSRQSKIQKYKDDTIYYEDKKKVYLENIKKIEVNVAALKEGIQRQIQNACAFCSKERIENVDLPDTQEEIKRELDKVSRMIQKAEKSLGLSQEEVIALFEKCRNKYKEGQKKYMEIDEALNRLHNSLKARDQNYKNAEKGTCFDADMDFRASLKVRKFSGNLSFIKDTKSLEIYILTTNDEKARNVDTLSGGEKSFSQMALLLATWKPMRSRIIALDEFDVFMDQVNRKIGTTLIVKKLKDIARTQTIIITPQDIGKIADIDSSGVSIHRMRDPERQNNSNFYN

binding result (His6-Flag-tagged Mph1)	binding result [1]	binding result (Strep-tagged Smc5)	binding result (MBP-tagged Smc5 (WT))	stoichiometry N (Mph1 monomer equivalents) [2]	stoichiometry N (Mph1 monomer equivalents) [3]	Binder
binds						MBP-tagged smc5-ΔNC (residues 149-944) (domain or fragment, UniProt Q08204 149-944, looked up) DYLINDYQVSESVVKTLVAQLNIQLDNLCQFLSQERVEEFARLKSVKLLVETIRSIDASLLDVLDELRELQGNEQSLQKDLDFKKAKIVHLRQESDKLRKSVESLRDFQNKKGEIELHSQLLPYVKVKDHKEKLNIYKEEYERAKANLRAILKDKKPFANTKKTLENQVEELTEKCSLKTDEFLKAKEKINEIFEKLNTIRDEVIKKKNQNEYYRGRTKKLQATIISTKEDFLRSQEILAQTHLPEKSVFEDIDIKRKEIINKEGEIRDLISEIDAKANAINHEMRSIQRQAESKTKSLTTTDKIGILNQDQDLKEVRDAVLMVREHPEMKDKILEPPIMTVSAINAQFAAYLAQCVDYNTSKALTVVDSDSYKLFANPILDKFKVNLRELSSADTTPPVPAETVRDLGFEGYLSDFITGDKRVMKMLCQTSKIHTIPVSRRELTPAQIKKLITPRPNGKILFKRIIHGNRLVDIKQSAYGSKQVFPTDVSIKQTNFYQGSIMSNEQKIRIENEIINLKNEYNDRKSTLDALSNQKSGYRHELSELASKNDDINREAHQLNEIRKKYTMRKSTIETLREKLDQLKREARKDVSQKIKDIDDQIQQLLLKQRHLLSKMASSMKSLKNCQKELISTQILQFEAQNMDVSMNDVIGFFNEREADLKSQYEDKKKFVKEMRDTPEFQSWMREIRSYDQDTKEKLNKVAEKYEEEGNFNLSFVQDVLDKLESEIAMVNHDESAVTILDQVTAELRELEHTVPQQSKDLETIKAKLKEDHAVLEPKLDDIVSKISARFARLF
	binds	binds	binds	1.4	7.3 and 12 and 17.4	B1
